Data set [1] relates to T1, N[C@@H](Cc1c[nH]c2ccccc12)C(=O)O.
T1 construct: purchased Sigma-Aldrich Co. (St. Louis, MO, USA)
The experiment in a line: L-tryptophan degradation by tryptophanase, kinetic and inhibition analysis (indole formation, Ehrlich reagent). It counts as biochemical, E. coli. Particulars: other: L-tryptophan degradation, pH 8.3. The method, then: When tryptophanase degraded L-tryptophan, all reaction mixtures included 0.2 mM of pyridoxal 5′-phosphate and 0.23 μM of tryptophanase in 100 mM potassium phosphate buffer of pH 8.3. DAP concentrations were prepared to the required concentrations of 0, 0.6, 1.2, 1.9 or 3.1 M. L-tryptophan. The reaction mixture was prepared to a concentration of 98, 108, 128, 137, 147, 167, 196, 225, 245, 294, 343, 392, 490, 680 or 980μM for kinetic analyses. Reactions were performed at 37 °C for 30 min in a Dry Thermo Unit DTU-1B (Taitec, Tokyo, Japan). Although D-tryptophan in addition to L-tryptophan was also degraded into indole in the presence of DAP, an indole production amount from D-tryptophan was neglected at this reaction temperature and time because the catalytic efficiency for D-tryptophan was 0.3% of that for L-tryptophan. On the other hand, the reaction condition of D-tryptophan degradation differed in several ways from that of L-tryptophan degradation. Each concentration of pyridoxal 5′-phosphate and tryptophanase was 1.2 mM and 0.92μM, and additionally reaction temperature and time was 55 °C and 2 h, respectively. All the other reaction conditions were the same as in the L-tryptophan degradation.
The total volume of the reaction mixture was 2 mL per tube. The reaction was stopped by adding 2 mL of n-butanol, which was vigorously mixed and then immediately centrifuged at approximately 1,000 G for 10 min. After centrifugation, the reaction mixture was separated into two layers of butanol and aqueous solutions in which indole was equally distributed. The supernatant butanol layer was extracted to be mixed with an equal volume of Ehrlich reagent, then colored red at 60 °C for 30 min in Dry Thermo Unit. […] Tryptophanase activity was assayed in triplicate at the same substrate concentration and then averaged. Initial velocity was computed based on the averaged value.
(§1) Initial velocities were defined by indole that formed within 1 minute after 1 mg of tryptophanase was added. Then the reciprocal of (initial velocity/[E] (enzyme concentration)) (ordinate) versus the reciprocal of substrate concentration (abscissa) was drawn for each concentration of L- or D-tryptophan. These double-reciprocal plots were drawn based on the least squares method to calculate kinetic parameters. Kcatwas determined from the reciprocal of the intercepts of these double-reciprocal plots, and the Michaelis constant Km from substrate concentration at 1/v = 0 in the absence of inhibitor. In noncompetitive inhibition, two inhibition constants of Ki (=[E][I]/[EI], E: enzyme; I: inhibitor; EI: enzyme-inhibitor complex) and Ki' (=[ES][I]/[ESI], ES: enzyme-substrate complex; ESI: enzyme-substrate-inhibitor complex) were determined from the slopes and from the intercepts, respectively. In the mixed type inhibition, Ki and Ki' were determined from x and y coordinates of the fixed point in the second quadrant.

Data set [2] concerns T2, N[C@H](Cc1c[nH]c2ccccc12)C(=O)O.
T2 construct: purchased Sigma-Aldrich Co. (St. Louis, MO, USA)
The experiment in a line: D-tryptophan degradation by tryptophanase in the presence of 3.1 M DAP, kinetic and inhibition analysis. It counts as biochemical, E. coli. As to conditions: other: 3.1 M DAP, 55 °C, pH 8.3. The method, then: When tryptophanase degraded L-tryptophan, all reaction mixtures included 0.2 mM of pyridoxal 5′-phosphate and 0.23 μM of tryptophanase in 100 mM potassium phosphate buffer of pH 8.3. DAP concentrations were prepared to the required concentrations of 0, 0.6, 1.2, 1.9 or 3.1 M. L-tryptophan. The reaction mixture was prepared to a concentration of 98, 108, 128, 137, 147, 167, 196, 225, 245, 294, 343, 392, 490, 680 or 980μM for kinetic analyses. Reactions were performed at 37 °C for 30 min in a Dry Thermo Unit DTU-1B (Taitec, Tokyo, Japan). […]
as §1, with “Then the reciprocal of (initial velocity/[E] (enzyme concentration)) (ordinate) versus the reciprocal of substrate concentration (abscissa) was drawn for each concentration of L- or D-tryptophan. These double-reciprocal plots were drawn based on the least squares method to calculate kinetic parameters.” left out

The text below walks through data of publication PMC4187121, “Flexible Enantioselectivity of Tryptophanase Attributable to Benzene Ring in Heterocyclic Moiety of D-Tryptophan” (Life : Open Access Journal, 2012).

Usually Km stands for the concentration of substrate that gives half-maximal velocity. One may read the kcat as the maximal rate divided by the concentration of active sites. Broadly, the kcat/Km is the turnover number divided by the Michaelis constant. With tryptophanase (Escherichia coli K-12), the Michaelis-Menten constant (Km) was 300 µM in data set [1] (DAP 0 M); 200 µM in data set [1] (DAP 0.6 M); 200 µM in data set [1] (DAP 1.2 M); 200 µM in data set [1] (DAP 1.9 M); 200 µM in data set [1] (DAP 3.1 M); 600 µM in data set [2]. The kcat in data set [1] (DAP 0 M) turned out to be 0.4 s⁻¹; in data set [1] (DAP 0.6 M), 0.18 s⁻¹; in data set [1] (DAP 1.2 M), 0.15 s⁻¹; in data set [1] (DAP 1.9 M), 0.11 s⁻¹; in data set [1] (DAP 3.1 M), 0.07 s⁻¹; in data set [2], 0.07 s⁻¹. Besides, the kcat/Km in data set [1] (DAP 0 M) was 1300 M⁻¹ s⁻¹; in data set [1] (DAP 0.6 M), 900 M⁻¹ s⁻¹; in data set [1] (DAP 1.2 M), 800 M⁻¹ s⁻¹; in data set [1] (DAP 1.9 M), 600 M⁻¹ s⁻¹; in data set [1] (DAP 3.1 M) it was 400 M⁻¹ s⁻¹.
